According to article PMC4606517, “Water-mediated recognition of t1-adenosine anchors Argonaute2 to microRNA targets”:

B1: guide + t1m6A target (dsRNA)
RNA 1: UUCACAUUGCCCAAGUCUCUU
RNA 2: CAAUGUGAAAA
modifications: 5'-phosphate on guide; target nt 9 = N6-methyladenosine (written A)
B2: guide + t1A target (dsRNA)
RNA 1: UUCACAUUGCCCAAGUCUCUU
RNA 2: CAAUGUGAAAA
modifications: 5'-phosphate on guide
B3: guide + t1DAP target (dsRNA)
RNA 1: UUCACAUUGCCCAAGUCUCUU
RNA 2: CAAUGUGAAAA
modifications: 5'-phosphate on guide; target nt 9 = 2,6-diaminopurine (written A)
B4: guide + t1C target (dsRNA)
RNA 1: UUCACAUUGCCCAAGUCUCUU
RNA 2: CAAUGUGACAA
modifications: 5'-phosphate on guide
B5: guide + t1U target (dsRNA)
RNA 1: UUCACAUUGCCCAAGUCUCUU
RNA 2: CAAUGUGAUAA
modifications: 5'-phosphate on guide
B6: guide + t1G target (dsRNA)
RNA 1: UUCACAUUGCCCAAGUCUCUU
RNA 2: CAAUGUGAGAA
modifications: 5'-phosphate on guide

How the values were obtained:
Ago2 wild type = Ago2 wild type (Homo sapiens, UniProt Q9UKV8 1-859); assay: filter binding; guide-loaded Ago2; target Kd; Filter binding: 30 mM Tris pH 8.0, 0.1 M K acetate, 2 mM Mg acetate, 0.5 mM TCEP, 0.005% NP-40, 0.01 mg/ml yeast tRNA, room temp, 45 min, 0.1 nM target; smFRET: 50 mM Tris pH 8.0, 50 mM NaCl, 60 mM KCl (RISC assembly buffer), 23 C; settings: protein: recombinant; tags: His6; guide g2-g9 pairs target nt 1-8; 3' overhangs; t1 = target nt 9
Ago2 A481T = Ago2 A481T (Homo sapiens, UniProt Q9UKV8 1-859, A481T); assay: as above; settings: protein: recombinant; tags: His6; guide g2-g9 pairs target nt 1-8; 3' overhangs; t1 = target nt 9
Ago2 A481T, sequence (Q9UKV8 whole entry A481T): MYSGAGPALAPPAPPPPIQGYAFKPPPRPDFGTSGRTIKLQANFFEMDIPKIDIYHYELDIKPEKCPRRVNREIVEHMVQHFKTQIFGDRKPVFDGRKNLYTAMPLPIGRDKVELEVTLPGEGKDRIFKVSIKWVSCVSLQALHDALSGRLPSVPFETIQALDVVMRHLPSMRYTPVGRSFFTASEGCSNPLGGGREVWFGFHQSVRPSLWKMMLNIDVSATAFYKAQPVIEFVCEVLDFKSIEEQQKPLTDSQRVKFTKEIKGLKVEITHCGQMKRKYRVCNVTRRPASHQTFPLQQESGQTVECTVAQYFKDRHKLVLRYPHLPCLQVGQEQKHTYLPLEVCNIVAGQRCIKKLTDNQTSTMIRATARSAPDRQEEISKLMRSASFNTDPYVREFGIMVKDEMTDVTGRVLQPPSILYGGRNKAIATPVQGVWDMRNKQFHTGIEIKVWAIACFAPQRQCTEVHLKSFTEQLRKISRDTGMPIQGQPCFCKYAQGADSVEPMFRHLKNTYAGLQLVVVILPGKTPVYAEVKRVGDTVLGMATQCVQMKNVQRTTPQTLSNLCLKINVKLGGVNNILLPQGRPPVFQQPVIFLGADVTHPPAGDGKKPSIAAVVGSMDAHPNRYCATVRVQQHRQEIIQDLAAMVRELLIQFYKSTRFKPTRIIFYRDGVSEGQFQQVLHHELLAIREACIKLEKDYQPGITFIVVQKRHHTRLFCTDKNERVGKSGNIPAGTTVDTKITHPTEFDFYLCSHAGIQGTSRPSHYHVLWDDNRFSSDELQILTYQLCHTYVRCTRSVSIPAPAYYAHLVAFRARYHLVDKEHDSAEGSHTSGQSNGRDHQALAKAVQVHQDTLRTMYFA

Ago2 wild type, sequence (Q9UKV8 whole entry): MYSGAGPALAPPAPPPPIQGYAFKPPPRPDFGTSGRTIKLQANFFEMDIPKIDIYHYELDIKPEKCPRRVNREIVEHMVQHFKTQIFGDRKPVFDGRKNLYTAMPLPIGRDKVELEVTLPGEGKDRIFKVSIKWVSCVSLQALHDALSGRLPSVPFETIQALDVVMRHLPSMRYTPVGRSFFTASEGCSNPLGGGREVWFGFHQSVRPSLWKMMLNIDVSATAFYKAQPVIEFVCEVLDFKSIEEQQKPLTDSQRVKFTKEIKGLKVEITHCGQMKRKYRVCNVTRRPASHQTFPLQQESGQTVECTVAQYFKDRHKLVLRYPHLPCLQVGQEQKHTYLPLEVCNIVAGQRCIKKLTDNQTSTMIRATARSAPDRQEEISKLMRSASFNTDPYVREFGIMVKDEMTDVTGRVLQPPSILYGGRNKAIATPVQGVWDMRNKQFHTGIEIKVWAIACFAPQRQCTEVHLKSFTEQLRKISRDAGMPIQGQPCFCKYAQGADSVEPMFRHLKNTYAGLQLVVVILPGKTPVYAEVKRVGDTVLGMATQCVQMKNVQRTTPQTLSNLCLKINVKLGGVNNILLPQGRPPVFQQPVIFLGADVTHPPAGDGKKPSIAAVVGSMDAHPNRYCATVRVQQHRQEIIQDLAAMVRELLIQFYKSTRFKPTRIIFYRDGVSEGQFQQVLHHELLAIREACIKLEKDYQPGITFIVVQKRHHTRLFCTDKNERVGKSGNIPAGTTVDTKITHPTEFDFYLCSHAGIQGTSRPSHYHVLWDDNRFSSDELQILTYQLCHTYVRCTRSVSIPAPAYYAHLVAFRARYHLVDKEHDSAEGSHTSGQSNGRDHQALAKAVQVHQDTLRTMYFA

Binder	Kd (Ago2 wild type) [nM]	Kd (Ago2 A481T) [nM]
B1	1.8 ± 0.12	
B2	0.75 ± 0.04	1.5 ± 0.13
B3	0.45 ± 0.03	
B4	1.8 ± 0.12	
B5	1.9 ± 0.1	
B6	1.9 ± 0.09	1.8 ± 0.11
